US20120172315A1 (CENTRE NATIONAL DE LA RECHERCHE SCIENTIFIQUE, published 2012)

Target: eIF4E in B lymphocytes from patients suffering from CLL (human (patients' cells);  for …, UniProt P06730 2-217, limits assumed)
Test: cell-based or functional assay

Sequence of eIF4E in B lymphocytes from patients suffering from CLL (P06730 2-217 limits assumed): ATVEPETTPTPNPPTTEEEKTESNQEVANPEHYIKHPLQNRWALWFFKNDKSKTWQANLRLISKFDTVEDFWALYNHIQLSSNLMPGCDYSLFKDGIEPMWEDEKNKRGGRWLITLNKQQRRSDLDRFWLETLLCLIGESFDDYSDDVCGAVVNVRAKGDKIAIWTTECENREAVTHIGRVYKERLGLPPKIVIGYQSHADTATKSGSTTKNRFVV

## RRKYGRDFLLRFRYIRS [A1 WT IRS peptide]
  IC50, defined as the concentration of peptide capable of causing the death of 50% of the cells after 24 H (CLL cells): ~28 µM
  IC50, defined as the concentration of peptide capable of causing the death of 50% of the cells after 24 H (CLL cells, second patient): 24 µM
